According to publication PMC3430610, “Brassica napus PHR1 Gene Encoding a MYB-Like Protein Functions in Response to Phosphate Starvation”:

Molecular target: MBP-BnPHR1 (Brassica napus, UniProt W5QL02 1-417)
Assay: EMSA; EMSA: 750 mM KCl, 0.5 mM DTT, 0.5 mM EDTA, 50 mM Tris pH 7.4 (so in the source), room temperature, 20 min; native PAGE, SYBR Green then SYPRO Ruby stain
Settings: protein: recombinant; tags: N-terminal MBP (pMAL-c2); chain copies: 2; label: none (SYBR Green post-stain); 5' overhang 4 nt on both strands (AATT and CCGG), 41 bp duplex

Sequence of MBP-BnPHR1 (W5QL02 entry or part of it): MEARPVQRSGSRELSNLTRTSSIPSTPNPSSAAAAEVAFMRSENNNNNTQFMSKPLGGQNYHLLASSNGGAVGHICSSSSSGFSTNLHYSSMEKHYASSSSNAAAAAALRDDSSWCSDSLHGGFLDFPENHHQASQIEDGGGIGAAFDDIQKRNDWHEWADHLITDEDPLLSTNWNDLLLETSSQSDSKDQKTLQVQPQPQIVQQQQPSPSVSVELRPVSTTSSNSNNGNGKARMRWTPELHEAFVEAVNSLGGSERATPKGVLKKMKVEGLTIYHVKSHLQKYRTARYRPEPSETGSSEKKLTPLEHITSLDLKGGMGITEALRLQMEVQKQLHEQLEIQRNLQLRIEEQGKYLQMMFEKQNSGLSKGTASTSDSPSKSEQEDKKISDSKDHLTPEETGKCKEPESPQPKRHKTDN

B1: BnPT2 promoter probe (BnPT2p1/p2) (dsDNA)
DNA 1: AATTGGAGGGGAATATACCGAAACATTGTTGTATATTCATGTAAG
DNA 2: CCGGCTTACATGAATATACAACAATGTTTCGGTATATTCCCCTCC
B1: binds.
